This is an account of results in patent publication US6894149 (PROTEIN DESIGN LABS, dated 2005).

Assay [1] addresses HLA-DR on solid tumor cell lines C32, HT-144 (melanoma) and OVCAR-5 (ovarian) (human). The assay is described as follows: cell-based or functional assay.
Assay [2] concerns the target HLA-DR on solid tumor cell lines C32, HT-144 (melanoma) and OVCAR-5 (ovarian) (human, UniProt P01903 26-254; P01911 30-266). The assay is described as follows: cell-based or functional assay.

1D10 (antibody) showed a specific cell death in C32 and HT-144 cells, 24 hour assay, 10 µg/ml in assay [1] of 5 to 15%.

“L227 (anti-HLA-DR β, ATCC HB-96) (antibody)”: the specific cell death in C32 and HT-144 cells, 24 hour assay, 10 µg/ml in assay [1] came out at 40%.

B1: K8-355 (antibody, mouse IgG1, V domains shown)
VH: QIQLVQSGPELKKPGETVKISCKASKYTFTNYGMNWVKQAPGKVLRWMGWINTYTGEPTYADDFKGRFAFSLETSASTAYLQINNLKNEDMATYFCATTTLITYYFDYWGQGTTLTVSS
VL: DIQMTQTTSSLSASLGDRVTISCRSSQDISKYLNWYQQKPDGTVKLLIYYTSRLHSGVPSRFSGSGSGTDYSLTISNLEQEDIATYFCQQGDTVPWTFGGGTKLEIK
As for B1, the “specific cell death in C32 and HT-144 cells, 24 hour assay, 10 µg/ml” value in assay [2] was about 40%.
